Changes are numbered by the printed parent chain. Names may count otherwise. One block for each binder: values may come before it.
Tests used:
[1] = molecular target: T1, cynomolgus monkey FcγRIIIaS extracellular domain with C-terminal His-tag (cynomolgus monkey, UniProt Q8SPW2 21-206 at identity 1.00)); assay: SPR, KD(SG1)/KD(variant)
T1 construct: also called cyno FcgRIIIaS; cynoFcγRIIIaS
T1 chain: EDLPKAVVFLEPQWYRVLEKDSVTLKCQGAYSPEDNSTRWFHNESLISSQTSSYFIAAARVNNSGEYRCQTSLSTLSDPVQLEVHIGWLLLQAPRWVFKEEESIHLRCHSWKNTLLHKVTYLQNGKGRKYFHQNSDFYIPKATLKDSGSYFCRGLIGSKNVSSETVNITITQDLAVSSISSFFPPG
Experimental: (§1) The kinetic analysis of interactions between these antibodies and FcγR was carried out using BIACORE® T200 or BIACORE® 4000 (GE Healthcare). HBS-EP+ (GE Healthcare) was used as the running buffer, and the measurement temperature was set to 25° C. […] After the measurement, the antibody captured on the chip was washed off by allowing reaction with 10 mM glycine-HCl, pH1.5 and 25 mM NaOH so that the chip was regenerated and used repeatedly. The sensorgrams obtained as measurement results were analyzed by the 1:1 Langmuir binding model using the BIACORE® Evaluation Software to calculate the binding rate constant ka (L/mol/s) and dissociation rate constant kd (1/s), and the dissociation constant KD (mol/L) was calculated from these values. […] Regarding such interactions, KD values were calculated using the following 1:1 binding model described in BIACORE® T100 Software Handbook BR1006-48 Edition AE.

[2] = molecular target: T2, human FcγRIIIaV extracellular domain with C-terminal His-tag (human, UniProt P08637 17-208); assay: SPR, KD(SG1)/KD(variant)
T2 construct: also called human FcgRIIIaV
T2 sequence (P08637 17-208 F176V): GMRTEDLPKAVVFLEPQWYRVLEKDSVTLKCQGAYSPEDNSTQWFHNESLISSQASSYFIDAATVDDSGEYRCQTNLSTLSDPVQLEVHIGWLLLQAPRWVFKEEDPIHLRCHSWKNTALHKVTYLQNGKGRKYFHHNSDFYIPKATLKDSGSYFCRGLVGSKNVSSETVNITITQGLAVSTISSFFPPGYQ
Experimental: as §1

[3] = molecular target: T3, cynomolgus monkey FcγRIIa2 extracellular domain with C-terminal His-tag (cynomolgus monkey); assay: SPR, KD(SG1)/KD(variant)
T3 construct: also called cyno FcgRIIa2; cynoFcγRIIa2
T3 chain: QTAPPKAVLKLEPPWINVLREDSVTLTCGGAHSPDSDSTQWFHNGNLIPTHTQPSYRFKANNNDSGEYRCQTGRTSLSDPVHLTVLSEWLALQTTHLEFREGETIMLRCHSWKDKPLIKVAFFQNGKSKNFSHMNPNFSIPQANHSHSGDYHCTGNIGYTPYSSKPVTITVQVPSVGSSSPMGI
Experimental: as §1

[4] = molecular target: T1, cynomolgus monkey FcγRIIIaS …; assay: SPR, antibody captured, FcγR analyte
[5] = molecular target: T4, cynomolgus monkey FcγRIIa1 extracellular domain with C-terminal His-tag (cynomolgus monkey); assay: SPR, KD(SG1)/KD(variant)
T4 construct: also called cyno FcgRIIa1; cynoFcγRIIa1
T4 chain: T3 chain with T95P, A121T, K127I, S128A, N130K, N135D, Q142R
Experimental: as §1

[6] = molecular target: T5, cynomolgus monkey FcγRIIa2 extracellular domain, His-tagged (cynomolgus monkey); assay: SPR Biacore, antibody captured, FcgR analyte
T5 construct: also called cyno FcγRIIa2; cynoFcgRIIa2; not shown: C-terminal His-tag
T5 chain: T3 chain

[7] = molecular target: T6, cynomolgus monkey FcγRIIa3 extracellular domain, His-tagged (cynomolgus monkey); assay: SPR Biacore, antibody captured, FcgR analyte
T6 construct: also called cyno FcγRIIa3; cynoFcgRIIa3; not shown: C-terminal His-tag
T6 chain: T3 chain with K127I, N130K, H133P, Q142R

[8] = molecular target: T7, human FcγRIIaR extracellular domain with C-terminal His-tag (human, UniProt P12318 34-217); assay: SPR (Biacore), KD of SG1 divided by KD of variant
T7 construct: also called human FcgRIIaR; FcγRIIa (type R)
T7 chain: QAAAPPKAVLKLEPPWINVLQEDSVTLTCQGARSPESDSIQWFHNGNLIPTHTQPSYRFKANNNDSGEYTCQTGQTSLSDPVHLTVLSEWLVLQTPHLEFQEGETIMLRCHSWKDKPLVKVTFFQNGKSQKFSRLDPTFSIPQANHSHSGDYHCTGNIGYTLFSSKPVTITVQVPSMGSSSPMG

[9] = molecular target: T8, cynomolgus monkey FcγRIIa3 extracellular domain with C-terminal His-tag (cynomolgus monkey); assay: SPR (Biacore), KD of SG1 divided by KD of variant
T8 construct: also called cyno FcgRIIa3; cynoFcγRIIa3
T8 chain: T3 chain with K127I, N130K, H133P, Q142R

[10] = molecular target: T9, cynomolgus monkey FcγRIIa1 extracellular domain with C-terminal His-tag (cynomolgus monkey); assay: SPR (Biacore), antibody captured, FcgR as analyte
T9 construct: also called cyno FcgRIIa1; cynoFcγRIIa1
T9 chain: T3 chain with T95P, A121T, K127I, S128A, N130K, N135D, Q142R

[11] = molecular target: T10, cynomolgus monkey FcγRIIa2 extracellular domain with C-terminal His-tag (cynomolgus monkey); assay: SPR (Biacore), antibody captured, FcgR as analyte
T10 construct: also called cyno FcgRIIa2; cynoFcγRIIa2
T10 chain: T3 chain

[12] = molecular target: T11, human FcγRIIaH extracellular domain with C-terminal His-tag (human, UniProt P12318 34-217); assay: SPR (Biacore), antibody captured, FcgR as analyte
T11 construct: also called human FcgRIIaH; FcγRIIa (type H)
T11 sequence: T7 chain with R134H

[13] = molecular target: T12, human FcγRIIb extracellular domain with C-terminal His-tag (human, UniProt P31994 43-217); assay: SPR (Biacore), KD of SG1 divided by KD of variant
T12 construct: also called human FcgRIIb
T12 sequence: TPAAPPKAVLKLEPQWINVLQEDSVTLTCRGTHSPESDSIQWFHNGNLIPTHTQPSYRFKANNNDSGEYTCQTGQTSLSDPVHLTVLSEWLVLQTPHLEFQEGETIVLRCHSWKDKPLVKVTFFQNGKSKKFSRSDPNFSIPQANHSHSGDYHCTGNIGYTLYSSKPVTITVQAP

[14] = molecular target: T13, cynomolgus monkey FcγRIIb extracellular domain with C-terminal His-tag (cynomolgus monkey); assay: SPR (Biacore), KD of SG1 divided by KD of variant
T13 construct: also called cyno FcgRIIb; cynoFcγRIIb
T13 chain: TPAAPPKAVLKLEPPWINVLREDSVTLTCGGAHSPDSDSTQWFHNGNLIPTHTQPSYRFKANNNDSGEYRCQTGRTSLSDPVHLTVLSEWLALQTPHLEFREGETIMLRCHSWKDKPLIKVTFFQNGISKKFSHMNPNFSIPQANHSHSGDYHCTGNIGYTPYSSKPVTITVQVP

[15] = molecular target: T10, cynomolgus monkey FcγRIIa2 …; assay: SPR (Biacore), KD of SG1 divided by KD of variant
[16] = molecular target: T14, human FcγRIIIaV extracellular domain, C-terminal His-tag (human, UniProt P08637 17-208); assay: SPR (BIACORE), captured by anti-human kappa, FcgR analyte
T14 construct: also called FcgRIIIaV
T14 sequence (P08637 17-208 F176V): as the sequence (P08637 17-208 F176V) above
Experimental: as §1
Furthermore, the substitutions used in Example 29 for improving antibody half-life and reducing binding to rheumatoid factor were introduced into human FcγRIIb-enhanced Fc variants and their affinity against human FcγRs were analyzed (Table 29).

B3: M103205H795-MY064/M103202L889-SK1 (antibody, human IgG1, kappa, name in EU numbering)
heavy: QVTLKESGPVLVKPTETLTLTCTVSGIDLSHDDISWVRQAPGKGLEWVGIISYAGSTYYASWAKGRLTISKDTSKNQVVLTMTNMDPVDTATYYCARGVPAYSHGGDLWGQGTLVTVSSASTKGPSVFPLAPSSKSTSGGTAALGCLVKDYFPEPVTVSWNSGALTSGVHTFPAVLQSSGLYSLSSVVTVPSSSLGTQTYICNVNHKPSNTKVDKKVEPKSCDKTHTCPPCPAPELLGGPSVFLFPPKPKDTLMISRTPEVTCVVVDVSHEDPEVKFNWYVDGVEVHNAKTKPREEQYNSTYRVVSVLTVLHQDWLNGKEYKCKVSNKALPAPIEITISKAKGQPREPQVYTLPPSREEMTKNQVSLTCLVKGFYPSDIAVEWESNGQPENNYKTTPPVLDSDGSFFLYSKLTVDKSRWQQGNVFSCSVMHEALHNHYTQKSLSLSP
light: DIVMTQSPATLSLSPGERATLSCTSSQSVYHANWLSWFQQKPGQPPKLLIYWASTLAYGVPSRFSGSGSGTDFTLTISSLQPEDAATYYCAGGYGGGRYAFGQGTKVEIKRTVAAPSVFIFPPSDEQLKSGTASVVCLLNNFYPREAKVQWKVDNALQSGNSQESVTEQDSKDSTYSLSSTLTLSKADYEKHKVYACEVTHQGLSSPVTKSFNRGEC
notes: Substitution introduced into M103205H795-SG1; EU numbering
- Kd [6]: 2.6 µM
- Kd [7]: 6.9 µM

B4: M103205H795-MY066/M103202L889-SK1 (antibody, human IgG1, kappa, name in EU numbering)
heavy: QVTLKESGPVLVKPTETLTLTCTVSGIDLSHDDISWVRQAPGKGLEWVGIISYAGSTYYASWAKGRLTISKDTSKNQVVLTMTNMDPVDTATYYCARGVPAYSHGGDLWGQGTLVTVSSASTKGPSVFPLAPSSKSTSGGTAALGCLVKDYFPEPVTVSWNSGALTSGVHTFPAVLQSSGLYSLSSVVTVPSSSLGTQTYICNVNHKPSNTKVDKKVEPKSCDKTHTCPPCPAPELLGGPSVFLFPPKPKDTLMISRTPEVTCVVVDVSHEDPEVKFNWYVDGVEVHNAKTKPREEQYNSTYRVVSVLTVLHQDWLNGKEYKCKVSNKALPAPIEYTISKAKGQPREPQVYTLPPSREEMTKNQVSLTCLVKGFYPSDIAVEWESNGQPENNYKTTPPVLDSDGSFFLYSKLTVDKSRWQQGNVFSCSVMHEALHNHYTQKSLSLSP
light: B3 light
notes: as for B3
- Kd [6]: 2.6 µM
- Kd [7]: 6.7 µM

B5: M103205H795-MY283 / M103202L889-SK1 (antibody, human IgG1, kappa, name in EU numbering)
heavy: QVTLKESGPVLVKPTETLTLTCTVSGIDLSHDDISWVRQAPGKGLEWVGIISYAGSTYYASWAKGRLTISKDTSKNQVVLTMTNMDPVDTATYYCARGVPAYSHGGDLWGQGTLVTVSSASTKGPSVFPLAPSSKSTSGGTAALGCLVKDYFPEPVTVSWNSGALTSGVHTFPAVLQSSGLYSLSSVVTVPSSSLGTQTYICNVNHKPSNTKVDKKVEPKSCDKTHTCPPCPAPELLTGPSVFLFPPKPKDTLMISRTPEVTCVVVDVSDEDPEVKFNWYVDGVEVHNAKTKPREELYNSTYRVVSVLTVLHQDWLNGKEYKCKVSNKALPKPIEKTISKAKGQPREPQVYTLPPSREEMTKNQVSLTCLVKGFYPSDIAVEWESNGQPENNYKTTPPVLDSDGSFFLYSKLTVDKSRWQQGNVFSCSVMHEALHNHYTQKSLSLSP
light: B3 light
- KD fold (SG1 = 1) [8]: 3.1 fold
- KD fold (SG1 = 1) [9]: 3.9 fold

B6: M103205H795-MY380 / M103202L889-SK1 (antibody, human IgG1, kappa, name in EU numbering)
heavy: B5 heavy with T238N, D270E, L297Q, P398K
light: B3 light
- Kd [10]: 0.93 µM
- KD fold (SG1 = 1) [9]: 5.2 fold

B7: M103205H795-MY521 / M103202L889-SK1 (antibody)
heavy: B5 heavy with P234D
light: B3 light
notes: 'Q235L' copied as printed, probably Q295L
- Kd [11]: 3.3 µM
- Kd [12]: 0.29 µM
- KD fold (SG1 = 1) [8]: 3.7 fold
- KD fold (SG1 = 1) [13]: 3.1 fold
- KD fold (SG1 = 1) [14]: 2.3 fold

B8: M103205H795-MY527 / M103202L889-SK1 (antibody, human IgG1, kappa, name in EU numbering)
heavy: B5 heavy with A233T
light: B3 light
- KD fold (SG1 = 1) [13]: 3.3 fold
- KD fold (SG1 = 1) [15]: 3.9 fold
- KD fold (SG1 = 1) [14]: 5.3 fold

The remaining lines, values ahead:

- KD fold (SG1 = 1) [1]: 0.07 fold
- KD fold (SG1 = 1) [2]: 0.04 fold
- KD fold (SG1 = 1) [3]: 3.3 fold
- Kd [4]: 4 µM
B1: MS1032LO06-MY352 (antibody, human IgG1, kappa)
heavy: B5 heavy with T238N, L297Q, Q313R, D415R
light: B3 light
notes: MY201 with Q311R/D413R; also called M103205H795-MY352; copies: 2 + 2

- KD fold (SG1 = 1) [1]: 0.08 fold
- KD fold (SG1 = 1) [5]: 3.5 fold
- Kd [4]: 3.3 µM
B2: MS1032LO06-PK55 (antibody, human IgG1, kappa)
heavy: B5 heavy with T238N, L297Q, Q313R, P345R
light: B3 light
notes: MY201 with Q311R/P343R; also called MS103205H795-PK55; M103205H795-MY55

- KD fold (SG1 = 1) [15]: 5.5 fold
B9: M103205H795-MY531 / M103202L889-SK1 (antibody, human IgG1, kappa, name in EU numbering)
heavy: B5 heavy with L236W, L297Q, K328T
light: B3 light

- Kd [16]: 930 µM
B10: MS103240H795-TT69/M103202L1045-SK1 (antibody)
heavy: QVQLVESGGGLVQPGGSLRLSCAVSGIDLSHDDISWVRQAPGKGLEWVSIISYAGSTYYASWAKGRLTISKDTSKNQVVLTMTNMDPVDTATYYCARGVPAYSHGGDLWGQGTLVTVSSASTKGPSVFPLAPSSKSTSGGTAALGCLVKDYFPEPVTVSWNSGALTSGVHTFPAVLQSSGLYSLSSVVTVPSSSLGTQTYICNVNHKPSNTKVDKKVEPKSCDKTHTCPPCPAPELLGGDSVFLFPPKPKDVLMISRTPEVTCVVVDVSHEDPEVKFNWYVDGVEVHNAKTKPREEQYNSTYRVVSVLPVLHRDWLNGKEYKCKVSNKALPKPIEKTISKAKGQPREPQVYTLPPSREEMTKNQVSLTCLVKGFYPSDIAVEWESNGQPENNYKTTPPVLDSDGSFFLYSKLTVKKSRWQQGNVFSCSVLHEALHAHTTRKELSLSP
light: B3 light with S25T, A32E
notes: copies: 2 + 2

- Kd [16]: 900 µM
B11: MS103240H795-TT72/M103202L1045-SK1 (antibody)
heavy: B10 heavy with V266I, L430M, T438Y
light: B3 light with S25T, A32E
notes: copies: 2 + 2

- Kd [16]: 960 µM
B12: MS103240H795-TT90/M103202L1045-SK1 (antibody)
heavy: B10 heavy with L236Y, V266I, P345R, K415D, L430M, T438Y
light: B3 light with S25T, A32E
